The target of this experiment is T1, CCR4-IL2 bispecific immunotoxin.
T1 construct: also called CCR4-IL2 IT; CCR4-IL2 immunotoxin
Nature of the experiment: flow cytometry, MFI against concentration of biotinylated immunotoxin on CD25+CCR4+ Hut102/6TG cells, nonlinear least squares fit.

B1: human CD25 and human CCR4 together on human CD25+CCR4+ T-cell lymphoma cell line Hut 102/6TG (other)
chain 1: ELCDDDPPEIPHATFKAMAYKEGTMLNCECKRGFRRIKSGSLYMLCTGNSSHSSWDNQCQCTSSATRNTTKQVTPQPEEQKERKTTEMQSPMQPVDQASLPGHCREPPPWENEATERIYHFVVGQMVYYQCVQGYRALHRGPAESVCKMTHGKTRWTQPQLICTGEMETSQFPGEEKPQASPEGRPESETSCLVTTTDFQIQTEMAATMETSIFTTEYQVAVAGCVFLLISVLLLSGLTWQRRQRKSRRTI
chain 2: MNPTDIADTTLDESIYSNYYLYESIPKPCTKEGIKAFGELFLPPLYSLVFVFGLLGNSVVVLVLFKYKRLRSMTDVYLLNLAISDLLFVFSLPFWGYYAADQWVFGLGLCKMISWMYLVGFYSGIFFVMLMSIDRYLAIVHAVFSLRARTLTYGVITSLATWSVAVFASLPGFLFSTCYTERNHTYCKTKYSLNSTTWKVLSSLEINILGLVIPLGIMLFCYSMIIRTLQHCKNEKKNKAVKMIFAVVVLFLGFWTPYNIVLFLETLVELEVLQDCTFERYLDYAIQATETLAFVHCCLNPIIYFFLGEKFRKYILQLFKTCRGLFVLCQYCGLLQIYSADTPSSSYTQSTMDHDLHDAL
notes: whole, on cells; Not a complex: two separate receptors on the same cell; also called human CD25+CCR4+ Hut102/6TG; CD25+CCR4+ CTCL Hut102/6TG
B1: binding was put at a Kd of 19.7 nM.

In general, Kd refers to the concentration at which binding is half-saturated. A high value points to a looser complex.

The values above are taken from US20260042853A1 (REGENTS OF THE UNIVERSITY OF COLORADO A BODY CORPORATE, published 2026).
